# According to article PMC9352680, “A comprehensive thermodynamic model for RNA binding by the Saccharomyces cerevisiae Pumilio protein PUF4”:
# T1: PUF4 RNA-binding domain (Saccharomyces cerevisiae, UniProt P25339 537-888)
# T1 sequence: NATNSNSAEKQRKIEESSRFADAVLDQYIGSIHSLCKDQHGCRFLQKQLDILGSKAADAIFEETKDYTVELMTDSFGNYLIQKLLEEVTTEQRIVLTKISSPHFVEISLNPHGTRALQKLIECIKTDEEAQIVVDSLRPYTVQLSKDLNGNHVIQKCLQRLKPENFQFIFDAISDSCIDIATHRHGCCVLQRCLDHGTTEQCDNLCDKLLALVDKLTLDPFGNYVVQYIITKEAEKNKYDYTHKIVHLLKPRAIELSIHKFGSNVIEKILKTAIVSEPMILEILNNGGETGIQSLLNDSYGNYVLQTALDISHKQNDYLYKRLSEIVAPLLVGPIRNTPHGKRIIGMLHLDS
# Target: T1, PUF4 RNA-binding domain
# Assay: Mg; RNA-MaP; 20 mM Na-HEPES pH 7.4, 30 mM KOAc, 0.75 mM MgCl2, 0.1% Tween-20, 5% glycerol, 0.1 mg/mL BSA, 2 mM DTT; 25 C; 0.0125-409.6 nM protein
# Conditions: tags: N-His6-TEV cleaved; C-SNAP kept, Cy3B-labelled; label: tethered on chip by stalled RNA polymerase
row,Binder,Kd [nM]
1,Ic_S4_P5E.1_K5.1_C5.1_H5.1_A5.1_[T5C]_[T6A]_[A7C]_F5.1_[T9C]_[A10C]_T5.1 (ssRNA) RNA: UUUGACAACUGAUCGUUCUUUCUUGUACACUCCUUCUUUCUCGAUCAGUUGUCUUU,6.67
2,Ic_S4_P5E.1_K5.1_C5.1_H5.1_A5.1_[T5A]_[T6C]_[A7C]_F5.1_[T8C]_[T9A]_[A10T]_T5.1 (ssRNA) RNA: UUUGACAACUGAUCGUUCUUUCUUGUAACCCAUUUCUUUCUCGAUCAGUUGUCUUU,531
3,Ic_S4_P5E.1_K5.1_C5.1_H5.1_A5.1_[A7T]_F5.1_[T8G]_[T9C]_[A10G]_T5.1 (ssRNA) RNA: UUUGACAACUGAUCGUUCUUUCUUGUAUUUGCGUUCUUUCUCGAUCAGUUGUCUUU,196
4,Ic_S4_P5E.1_K5.1_C5.1_H5.1_A5.1_[T5A]_[T6A]_[A7T]_F5.1_[T8A]_[T9A]_[A10C]_T5.1 (ssRNA) RNA: UUUGACAACUGAUCGUUCUUUCUUGUAAAUAACUUCUUUCUCGAUCAGUUGUCUUU,26.6
5,Ic_S4_P5E.1_K5.1_C5.1_H5.1_A5.1_[T6C]_[A7T]_F5.1_[T8A]_T5.1 (ssRNA) RNA: UUUGACAACUGAUCGUUCUUUCUUGUAUCUAUAUUCUUUCUCGAUCAGUUGUCUUU,3.97
6,Ic_S4_P5E.1_K5.1_C5.1_H5.1_A5.1_[T5A]_[A7T]_F5.1_[T9C]_[A10T]_T5.1 (ssRNA) RNA: UUUGACAACUGAUCGUUCUUUCUUGUAAUUUCUUUCUUUCUCGAUCAGUUGUCUUU,32.8
7,Ic_S4_P5E.1_K5.1_C5.1_H5.1_A5.1_[T6G]_[A7T]_F5.1_[T8G]_[T9C]_[A10C]_T5.1 (ssRNA) RNA: UUUGACAACUGAUCGUUCUUUCUUGUAUGUGCCUUCUUUCUCGAUCAGUUGUCUUU,67.2
8,Ic_S4_P5E.1_K5.1_C5.1_H5.1_A5.1_[T6G]_[A7C]_F5.1_[T8C]_[T9C]_[A10T]_T5.1 (ssRNA) RNA: UUUGACAACUGAUCGUUCUUUCUUGUAUGCCCUUUCUUUCUCGAUCAGUUGUCUUU,527
9,Ic_S4_P5E.1_K5.1_C5.1_H5.1_A5.1_[T5G]_[T6C]_[A7T]_F5.1_[T8A]_[A10T]_T5.1 (ssRNA) RNA: UUUGACAACUGAUCGUUCUUUCUUGUAGCUAUUUUCUUUCUCGAUCAGUUGUCUUU,56.6
10,Ic_S4_P5E.1_K5.1_C5.1_H5.1_A5.1_[T6A]_[A7C]_F5.1_[T8C]_[T9C]_[A10T]_T5.1 (ssRNA) RNA: UUUGACAACUGAUCGUUCUUUCUUGUAUACCCUUUCUUUCUCGAUCAGUUGUCUUU,36.1
11,Ic_S4_P5E.1_K5.1_C5.1_H5.1_A5.1_[T5C]_[T6C]_F5.1_[T8A]_[T9A]_[A10C]_T5.1 (ssRNA) RNA: UUUGACAACUGAUCGUUCUUUCUUGUACCAAACUUCUUUCUCGAUCAGUUGUCUUU,158
12,Ic_S4_P5E.1_K5.1_C5.1_H5.1_A5.1_[T5C]_[T6C]_[A7C]_F5.1_[T8G]_[T9C]_[A10C]_T5.1 (ssRNA) RNA: UUUGACAACUGAUCGUUCUUUCUUGUACCCGCCUUCUUUCUCGAUCAGUUGUCUUU,985
13,Ic_S4_P5E.1_K5.1_C5.1_H5.1_A5.1_[T5C]_[T6C]_[A7G]_F5.1_[T8G]_[T9C]_[A10C]_T5.1 (ssRNA) RNA: UUUGACAACUGAUCGUUCUUUCUUGUACCGGCCUUCUUUCUCGAUCAGUUGUCUUU,> 2300
14,Ic_S4_P5E.1_K5.1_C5.1_H5.1_A5.1_[T6G]_[A7C]_F5.1_[T8G]_[T9C]_[A10T]_T5.1 (ssRNA) RNA: UUUGACAACUGAUCGUUCUUUCUUGUAUGCGCUUUCUUUCUCGAUCAGUUGUCUUU,542
15,Ic_S4_P5E.1_K5.1_C5.1_H5.1_A5.1_[T5C]_[T6A]_F5.1_[T8A]_[T9C]_[A10T]_T5.1 (ssRNA) RNA: UUUGACAACUGAUCGUUCUUUCUUGUACAAACUUUCUUUCUCGAUCAGUUGUCUUU,80.6
16,Ic_S4_P5E.1_K5.1_C5.1_H5.1_A5.1_[T5C]_[T6C]_[A7C]_F5.1_[T8G]_[T9C]_[A10G]_T5.1 (ssRNA) RNA: UUUGACAACUGAUCGUUCUUUCUUGUACCCGCGUUCUUUCUCGAUCAGUUGUCUUU,1670
17,Ic_S4_P5E.1_K5.1_C5.1_H5.1_A5.1_[T6G]_[A7C]_F5.1_[T8A]_T5.1 (ssRNA) RNA: UUUGACAACUGAUCGUUCUUUCUUGUAUGCAUAUUCUUUCUCGAUCAGUUGUCUUU,14.1
18,Ic_S4_P5E.1_K5.1_C5.1_H5.1_A5.1_[T5A]_[T6A]_[A7T]_F5.1_[A10T]_T5.1 (ssRNA) RNA: UUUGACAACUGAUCGUUCUUUCUUGUAAAUUUUUUCUUUCUCGAUCAGUUGUCUUU,16.9
19,Ic_S4_P5E.1_K5.1_C5.1_H5.1_A5.1_[T5A]_[T6A]_[A7C]_F5.1_[T9A]_T5.1 (ssRNA) RNA: UUUGACAACUGAUCGUUCUUUCUUGUAAACUAAUUCUUUCUCGAUCAGUUGUCUUU,4.37
20,Ic_S4_P5E.1_K5.1_C5.1_H5.1_A5.1_[T5A]_[A7C]_F5.1_[T8A]_[T9G]_[A10C]_T5.1 (ssRNA) RNA: UUUGACAACUGAUCGUUCUUUCUUGUAAUCAGCUUCUUUCUCGAUCAGUUGUCUUU,1930
21,UCUCUUUGUACAUUAUCUCUU (ssRNA) [Ic_S1_P4E.1_K4.1_C4.1_H4.1_A4.1_[T5C]_F4.1_T4.1],0.601
22,UCUCUUUGUAUCUUCUCUCUU (ssRNA) [Ib_S1_P4E.1_K4.1_C4.1_H4.1_A4.1_[A6C]_F4.1_[A9C]_T4.1],92.5
23,UCUCUUUGUAUGUUUUCUCUU (ssRNA) [Ic_S1_P4E.1_K4.1_C4.1_H4.1_A4.1_[A6G]_F4.1_[A9T]_T4.1],40
24,UCUCUUUGUAUGUUCUCUCUU (ssRNA) [Ic_S1_P4E.1_K4.1_C4.1_H4.1_A4.1_[A6G]_F4.1_[A9C]_T4.1],54.6
25,UCUCUUUGUAUUUUCUCUCUU (ssRNA) [Ic_S1_P4E.1_K4.1_C4.1_H4.1_A4.1_[A6T]_F4.1_[A9C]_T4.1],36
